Reference: patent publication WO2022102744A1 (dated 2022)

Target: T1, SARS-CoV-2 spike protein (full S1 and S2 regions, furin recognition sequence removed, histidine tag) (SARS-CoV-2, UniProt P0DTC2 14-1273)
T1 construct: whole, on cells; also called Exo-S; spike protein positive exosome
Test: competition ELISA: ACE2 on plate, Exo-S with titrated antibody; competitor ACE2

B1: anti-spike protein monoclonal antibody clone A1-1C7 (antibody, V domains shown)
VH: EVQLQQSGTELVTPGASVKLSCTASGFNIKDTYVQWVKQRPEQGLEWIGRIDPASDNTFYASKFQGKASLSSDTSSNTAYMQLSSLTSGDTAVYYCSTYFSNFYYWGQGTPLTVSS
VL: DIQMTQSPASLSASVGDTVTITCGASENIYGALNWYQRKKGKSPQLLIYGATNLADGMSSRFSGRGSGRQYFLKISSLHPDDVATYYCQNVLSVPWTFGGGTKLEIK
notes: also called MAb2B (related to clone A1-1C7)
In the case of B1, the IC50 is reported as 4.8 ng/mL.
